Assay results from US20170342349A1, “STABILIZED ENZYME COMPOSITIONS” (NOVOZYMES A/S, priority 2014, published 2017).

Key:
Assay type in all cases: biochemical
[1] = Inhibitor binding assay of SEQ ID NO 3 variants, Inhibitor 2, in Model B detergent; conditions: in Model B relative to SEQ ID NO 3; relative Ki, IF>1.0 = lower Ki
Source text: (§1) Where E is the protease, I is the inhibitor and EI is the protease-inhibitor complex. […] The concentration of enzyme-inhibitor in the detergent solution is then given by:
(§2) where Etot is the total protease concentration ([Etot]=[E]+[EI]), Itot is the total inhibitor concentration ([Itot]=[I]+[EI]), and Ki is the equilibrium binding constant for the reaction. The measured slopes V are given by:
(§3) where V0 is the slope without inhibitor added. To calculate apparent binding constant Ki least square fitting of measured slopes at various inhibitor concentrations to this equation is performed with Ki and V0 as variables.
(§4) Purified protease variants are pre-diluted to approximately 0.2 mg/ml in dilution buffer. The experimental conditions are described in Table 5. 40 μl diluted protease is then mixed with 40 μl inhibitor solution Inhibitor 1: (Cbz-Gly-Ala-NHCH(CH2C6H4pOH)C(OH)(SO3Na)—H, wherein Cbz is benzyloxycarbonyl) or 40 μl Inhibitor 2: (4-FPBA) solution in the well of a 96 well microtiter plate (Nunc F 96-MTP). […] After 10 min mixing of protease and inhibitor at room temperature, 30 μl of the mixture is transferred to a microtiter plate (Nunc U96 PP 0.5 ml) with 270 μl Model B detergent (described in Table 1) in the wells resulting in inhibitor 1 concentrations of 0-30 μM and inhibitor 2 concentrations of 0-6000 μM. Protease, inhibitor and detergent is mixed for 1 hour using magnetic bars for 1 hour at room temperature to reach equilibrium. Then 20 μl is transferred to a microtiter plate (Nunc F 96-MTP). 100 μl substrate solution is added and after 5 sec mixing absorbance at 405 nm is measured every 20 sec for 5 min on a SpectraMax Plus reader. Slope from linear regression of initial increase in absorbance at 405 nm is used for calculation of apparent binding constants. Ki values were calculated according to the “Calculation of Ki” method described in “Materials and Methods”
(§5) Having the Ki for each variant, it is possible to calculate the effect of a single mutation, if data are available for at least two variants that differ only by that mutation. In this case, the relative Ki for the mutation (Improvement Factor, or IF) is calculated:
(§6) A lower Ki is desirable, as a satisfactory inhibition can be obtained at a lower inhibitor concentration, so beneficial mutations have an IF>1.0

[2] = Inhibitor binding assay of SEQ ID NO 3 variants, Inhibitor 1, in Model B detergent; conditions: in Model B relative to SEQ ID NO 3; relative Ki, IF>1.0 = lower Ki
Source text: as §1, §2, §3, §4, §5, §6

[3] = Inhibitor binding assay of SEQ ID NO 6 variants, Inhibitor 1, in Model B detergent; conditions: in Model B relative to SEQ ID NO 6; relative Ki, IF>1.0 = lower Ki
Source text: as §1, §2, §3
(§7) Purified protease variants are pre-diluted to approximately 0.2 mg/ml in dilution buffer. The experimental conditions are described in Table 5 40 μl diluted protease is then mixed with 40 μl inhibitor solution Inhibitor 1 or 40 μl inhibitor 2 solution in the well of a 96 well microtiter plate (Nunc F 96-MTP). […] After 10 min mixing of protease and inhibitor at room temperature, 30 μl of the mixture is transferred to a microtiter plate (Nunc U96 PP 0.5 ml) with 270 μl Model B detergent (described in Table 1) in the wells resulting in inhibitor 1 concentrations of 0-30 μM and inhibitor 2 concentrations of 0-6000 μM. Protease, inhibitor and detergent is mixed for 1 hour using magnetic bars for 1 hour at room temperature to reach equilibrium. Then 20 μl is transferred to a microtiter plate (Nunc F 96-MTP). 100 μl substrate solution is added and after 5 sec mixing absorbance at 405 nm is measured every 20 sec for 5 min on a SpectraMax Plus reader. Slope from linear regression of initial increase in absorbance at 405 nm is used for calculation of apparent binding constants. Ki values were calculated according to the “Calculation of Ki” method described in “Materials and Methods”
(§8) Having the Ki for each variant, it is possible to calculate the effect of a single mutation, if data are available for at least two variants that differ only by that mutation. In this case, the relative Ki for the mutation (Improvement Factor, or IF) is calculated: […]

[4] = Inhibitor binding assay of SEQ ID NO 6 variants, Inhibitor 2, in Model B detergent; conditions: in Model B relative to SEQ ID NO 6; relative Ki, IF>1.0 = lower Ki
Source text: as §1, §2, §3, §7, §8

Molecule	inhibitor 2 binding constant improvement factors (IF) [1]	inhibitor 1 binding constant improvement factors (IF) [2]	inhibitor 1 binding constant improvement factors (IF) [3]	inhibitor 2 binding constant improvement factors (IF) [4]
L184F: protease variant of SEQ ID NO 3 (protein, listed as Bacillus sp.) AVPSTQTPWGIKSIYNDQSITKTTGGSGIKVAVLDTGVYTSHLDLAGSAEQCKDFTQSNPLVDGSCTDRQGHGTHVAGTVLAHGGSNGQGVYGVAPQAKLWAYKVLGDNGSGYSDDIAAAIRHVADEASRTGSKVVINMSLGSSAKDSLIASAVDYAYGKGVLIVAAAGNSGSGSNTIGFPGGFVNAVAVAALENVQQNGTYRVADFSSRGNPATAGDYIIQERDIEVSAPGASVESTWYTGGYNTISGTSMATPHVAGLAAKIWSANTSLSHSQLRTELQNRAKVYDIKGGIGAGTGDDYASGFGYPRVK	1.39	2.27		
N60F + S100I: protease variant of SEQ ID NO 6 (protein, Protease C) AQSVPWGISRVQAPAAHNRGLTGSGVKVAVLDTGISTHPDLNIRGGASFVPGEPSTQDGFGHGTHVAGTIAALNNSIGVLGVAPSAELYAVKVLGASEGIGSVSSIAQGLEWAGNNGMHVANLSLGSPSPSATLEQAVNSATSRGVLVVAASGNSGAGSISYPARYANAMAVGATDQNNNRASFSQYGAGLDIVAPGVNVQSTYPGSTYASLNGTSMATPHVAGAAALVKQKNPSWSNVQIRNHLKNTATSLGSTNLYGSGLVNAEAATR			11.26	
S100I + Y166F: protease variant of SEQ ID NO 6 (protein, Protease C) AQSVPWGISRVQAPAAHNRGLTGSGVKVAVLDTGISTHPDLNIRGGASFVPGEPSTQDGNGHGTHVAGTIAALNNSIGVLGVAPSAELYAVKVLGASEGIGSVSSIAQGLEWAGNNGMHVANLSLGSPSPSATLEQAVNSATSRGVLVVAASGNSGAGSISYPARFANAMAVGATDQNNNRASFSQYGAGLDIVAPGVNVQSTYPGSTYASLNGTSMATPHVAGAAALVKQKNPSWSNVQIRNHLKNTATSLGSTNLYGSGLVNAEAATR			11.26	2.31
S100I + L134V: protease variant of SEQ ID NO 6 (protein, Protease C) AQSVPWGISRVQAPAAHNRGLTGSGVKVAVLDTGISTHPDLNIRGGASFVPGEPSTQDGNGHGTHVAGTIAALNNSIGVLGVAPSAELYAVKVLGASEGIGSVSSIAQGLEWAGNNGMHVANLSLGSPSPSATVEQAVNSATSRGVLVVAASGNSGAGSISYPARYANAMAVGATDQNNNRASFSQYGAGLDIVAPGVNVQSTYPGSTYASLNGTSMATPHVAGAAALVKQKNPSWSNVQIRNHLKNTATSLGSTNLYGSGLVNAEAATR			15.14	1.1
A164S: protease variant of SEQ ID NO 6 (protein, Protease C) AQSVPWGISRVQAPAAHNRGLTGSGVKVAVLDTGISTHPDLNIRGGASFVPGEPSTQDGNGHGTHVAGTIAALNNSIGVLGVAPSAELYAVKVLGASEGSGSVSSIAQGLEWAGNNGMHVANLSLGSPSPSATLEQAVNSATSRGVLVVAASGNSGAGSISYPSRYANAMAVGATDQNNNRASFSQYGAGLDIVAPGVNVQSTYPGSTYASLNGTSMATPHVAGAAALVKQKNPSWSNVQIRNHLKNTATSLGSTNLYGSGLVNAEAATR				1.84
